Assay [1] has as its target MART1 comPACT (UniProt P61769). As to the kind of experiment: PE/APC comPACT tetramer dual staining, FACS.
Assay [2] concerns the target MART1 comPACT (UniProt P61769). As to the kind of experiment: dual staining with tetramer, trimer+DNA, dextramer and dextramer+DNA, FACS.
The target of assay [3] is MART1 comPACT (UniProt P61769). As to the kind of experiment: replicate of PE/APC comPACT tetramer dual staining, FACS.

UniProt P61769, sequence (P61769 21-119): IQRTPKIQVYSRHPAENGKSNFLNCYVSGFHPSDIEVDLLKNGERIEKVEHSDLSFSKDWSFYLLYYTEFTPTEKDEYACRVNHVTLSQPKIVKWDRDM

Regarding TCR against a MART1 antigen (F5), the tetramer staining (% of T cells) in assay [1] and in assay [3] was greater than 99% each time. In addition, the % of gene edited cells stained in assay [2] was greater than 98%.

Values taken from patent publication US20200256849A1.
